The target in the assay is cynomolgus monkey PVRIG on FlpinCHO-cyno PVRIG cells (cynomolgus monkey). Put plainly: FACS, FlpinCHO-cyno PVRIG cells. For orientation: In flow cytometry, cells or beads pass a laser one at a time.
Sequence of cynomolgus monkey PVRIG on FlpinCHO-cyno PVRIG cells (cynomolgus monkey) (chain, as listed by the source): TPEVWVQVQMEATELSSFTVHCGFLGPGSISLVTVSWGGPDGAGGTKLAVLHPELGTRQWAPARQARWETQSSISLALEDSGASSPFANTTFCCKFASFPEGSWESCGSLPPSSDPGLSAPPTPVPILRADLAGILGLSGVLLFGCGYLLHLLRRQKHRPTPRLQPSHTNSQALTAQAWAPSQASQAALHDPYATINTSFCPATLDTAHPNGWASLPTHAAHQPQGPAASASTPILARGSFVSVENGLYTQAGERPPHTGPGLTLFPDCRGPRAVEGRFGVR

B1: PVRIG-A105-H3a (Fc fusion, not shown: a dimerising Fc or GST)
chain: EVQLVESGGGLVQPGGSLRLSCAASGRTFDRHTMTWFRQAPGKEREFVATASRIPGDTYYVDSVKGRFTISRDNAKNSVYLQMNSLRAEDTAVYYCAATSAYSSEVDSYEKGSWYDNWGQGTMVTVSS
Take B1: the AUC % to COM701-hIgG1 was 3.27%, the AUC % to SRF813-hIgG1 is 4.05% and the AUC % to parental Ab turned out to be 3.74%.

Source of the values: patent US20240343803A1.
